Source: the supplement of paper PMC10724198

Assays:
Saccharomyces cerevisiae [1] = assay: protein stability index of tFT-peptide fusion in wild type (PSI (0-1 scale)); higher = more stable (slower turnover); conditions: genetic background: wild type
Saccharomyces cerevisiae [2] = assay: protein stability index of tFT-peptide fusion in deletion strain of DOA10 (PSI (0-1 scale)); higher = more stable (slower turnover)
Description: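 MPS profiling in S. cerevisiae of two library types built from selected 12-aa C-degron peptides (IN1, IN2, LN1, LN3, VN2, R1-R5, W1-W3, Atg1 and Rpa12 C-termini): saturation mutagenesis libraries and C-terminal +1 capping libraries (13 aa). Each peptide is fused to the C-terminus of a sfGFP-mCherry timer, after a GGGS linker. Cells are FACS-sorted into 8 mCherry/sfGFP bins and sequenced. PSI runs from 0 (unstable) to 1 (stable), measured once in wild type and in the das1Δ or doa10Δ background.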

Saccharomyces cerevisiae [3] = assay: protein stability index of tFT-peptide fusion in deletion strain of DAS1 (PSI (0-1 scale)); higher = more stable (slower turnover)
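Wherever protein stability index of tFT-peptide fusion in deletion strain of DAS1 is given: PSI is a weighted mean of each variant's read distribution over the sorted stability bins, computed only for variants having over 10 reads in total.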
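Wherever protein stability index of tFT-peptide fusion in deletion strain of DOA10 is given: PSI per variant is the weighted mean of its sequencing read distribution over the sorted stability bins, counting only variants with over 10 reads summed across bins.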
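Wherever protein stability index of tFT-peptide fusion in wild type is given: PSI derived as read-weighted mean over the 8 sorting bins, only variants exceeding 10 total reads kept, mCherry placed adjacent to the peptide and sfGFP distal.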

| Sequence | protein stability index (Saccharomyces cerevisiae [1]) | protein stability index (Saccharomyces cerevisiae [2]) | protein stability index (Saccharomyces cerevisiae [3]) |
| --- | --- | --- | --- |
| RVTRLDAIYFKI | 0.352 | 0.595 |  |
| CLVSKPILLFFR | 0.17 | 0.627 |  |
| AITLPMCPALLR | 0.493 | 0.672 |  |
| CLVSLPWLLFFR | 0.144 | 0.65 |  |
| RSLRVLLPLYFA | 0.286 | 0.413 |  |
| RVTRLDAIYFRII | 0.0611 | 0.127 |  |
| CLVSLPILLIFR | 0.0669 | 0.537 |  |
| CLVSLPILLFFC | 0.0908 | 0.249 |  |
| GLYMCSVGCWFRD | 0.431 | 0.649 |  |
| IVTRLDAIYFRI | 0.24 | 0.612 |  |
| RSLRVLLPLCFR | 0.405 | 0.687 |  |
| RSLRVLLPLFFR | 0.38 | 0.681 |  |
| RSYRVLLPLYFR | 0.217 | 0.637 |  |
| RVTRLDACYFRI | 0.532 | 0.707 |  |
| RMTRLDAIYFRI | 0.429 | 0.655 |  |
| RSLRVLLPLYNR | 0.623 | 0.666 |  |
| RVTRLDAKYFRI | 0.673 | 0.709 |  |
| RVRRLDAIYFRI | 0.385 | 0.641 |  |
| RSLRVLLPLYFRL | 0.194 | 0.496 |  |
| GLYMCSVGCWFH | 0.401 | 0.497 |  |

| Sequence | protein stability index (Saccharomyces cerevisiae [1]) | protein stability index (Saccharomyces cerevisiae [2]) | protein stability index (Saccharomyces cerevisiae [3]) |
| --- | --- | --- | --- |
| GLYMCSVGCWHR | 0.668 | 0.722 |  |
| ILYMCSVGCWFR | 0.289 | 0.486 |  |
| RSLRVLLPLYFRK | 0.293 | 0.593 |  |
| RVTRLYAIYFRI | 0.134 | 0.294 |  |
| RHLRVLLPLYFR | 0.277 | 0.678 |  |
| AITLPGCPLLLR | 0.327 | 0.683 |  |
| RSLRVLIPLYFR | 0.23 | 0.639 |  |
| RVTRLTAIYFRI | 0.172 | 0.351 |  |
| GLYMCMVGCWFR | 0.25 | 0.462 |  |
| GLYMCSVGCDFR | 0.641 | 0.663 |  |
| AITQPMCPLLLR | 0.508 | 0.701 |  |
| GLYMESVGCWFR | 0.415 | 0.703 |  |
| GLYMCSVGRWFR | 0.643 | 0.668 |  |
| AITLPMCPLLLT | 0.449 | 0.491 |  |
| CLVSLPILLFNR | 0.394 | 0.588 |  |
| GLYMCSVGNWFR | 0.611 | 0.683 |  |
| CLVVLPILLFFR | 0.0796 | 0.451 |  |
| RSLRVLLPLYFH | 0.365 | 0.583 |  |
| CLVSLCILLFFR | 0.23 | 0.334 |  |
| RSLRVNLPLYFR | 0.18 | 0.672 |  |

| Sequence | protein stability index (Saccharomyces cerevisiae [1]) | protein stability index (Saccharomyces cerevisiae [2]) | protein stability index (Saccharomyces cerevisiae [3]) |
| --- | --- | --- | --- |
| RSFRVLLPLYFR | 0.162 | 0.612 |  |
| RITLPMCPLLLR | 0.296 | 0.651 |  |
| WLVSLPILLFFR | 0.105 | 0.518 |  |
| RVDRLDAIYFRI | 0.559 | 0.639 |  |
| AITLPMHPLLLR | 0.25 | 0.643 |  |
| CLVSQPILLFFR | 0.227 | 0.628 |  |
| CLVSLPILLFFK | 0.0574 | 0.577 |  |
| AITLPMCPLLLS | 0.405 | 0.443 |  |
| RVTRLDAIYFRA | 0.608 | 0.697 |  |
| TSLRVLLPLYFR | 0.294 | 0.654 |  |
| RATRLDAIYFRI | 0.493 | 0.681 |  |
| GLYMCSSGCWFR | 0.435 | 0.679 |  |
| FSRRWTFRYWVN | 0.0509 |  | 0.636 |
| RSLRVLLPLMFR | 0.288 | 0.654 |  |
| PSLAASFWRMVG | 0.151 |  | 0.646 |
| PDKRNHLIKKLN | 0.0795 |  | 0.581 |
| PDKRNHLWKLLN | 0.0949 |  | 0.601 |
| HLIQPLPVQFLN | 0.13 |  | 0.713 |
